From patent US20220143148A1, “COMPOSITIONS AND METHODS FOR MODULATING CGRP SIGNALING TO REGULATE INTESTINAL INNATE LYMPHOID CELLS” (The Broad Institute, Inc., priority 2019, published 2022)

System: small intestinal immune cells
Assay: Droplet-based scRNA-seq of small intestinal immune cells (LP and PP), OVA vs PBS, clustering and differential expression
Assay type: in vivo, mouse
Conditions: cluster ID 12, LP; for LN (average fold change): OVA vs PBS
Description: To comprehensively characterize small intestinal immune cells, Applicants generated scRNA-Seq profiles for 58,067 immune cells collected from lamina propria (LP) and Peyer's patch (PP) regions at steady state and after induction of a type 2 inflammatory reaction to ovalbumin (OVA) (Brandt et al., 2003) (FIGS. 1A and 8A). To ensure sufficient representation of rare cells, Applicants combined a normalization strategy—removing by flow sorting either a portion of IgD+ naïve B cells, which are the most abundant cell type in PPs, or all CD19+ and CD3+ T cells (FIG. 8B, Methods)—with profiling of a sufficiently large number of cells number (P>0.99 to recover at least 15 cells from each cluster, Methods) by massively parallel scRNA-seq (Haber et al., 2017) (Methods). Applicants obtained 36,797 and 21,270 high quality cells passing initial filtering (Methods) from PP and LP regions, respectively.
Overall, Applicants annotated 27 cell subsets across the two compartments, spanning T cells, B cells, ILCs, dendritic cells (DCs), myeloid cells and stromal cells, in frequencies ranging from 0.07% to 14%. Briefly, Applicants first partitioned the cells from the PP regions by unsupervised clustering (Methods) into 46 clusters, retained the 97% of cells that were robustly assigned cell identities in each cluster (Methods), assigned the cells from the LP regions to the 46 clusters using a classifier (Methods), and visualized the data with scvis (Ding et al., 2018), a deep generative model-based method (FIGS. 1B and 8C, Methods). Next, Applicants identified genes that were differentially expressed between the cells in each cluster and the remaining cells (Table 1, Methods), as well as between pairs of clusters (Table 2), to elucidate identities of similar cell types/states. Applicants excluded from downstream analysis clusters mostly consisting of contaminants from epithelium, likely doublets, or cells with a small number of Unique Molecular Identifiers (UMIs) (FIGS. 1C and 8D), or lacking distinct markers (Methods). Altogether, Applicants retained 27 clusters spanning 85% of the cells and each associated with distinct marker genes (FIG. 8E, Methods).
To induce allergic reaction to OVA, 6 to 7 weeks old mice were sensitized twice, two weeks apart, with 50 μg of OVA plus 1 mg of aluminum potassium sulfate adjuvant via intraperitoneal injection. Two weeks later, mice were orally administered with 50 mg of OVA on every other day for a total of five times. 1 μg of α-CGRP peptide was administered simultaneously when indicated. Mice were deprived of food for 3-4 hours in cages with wood chip bedding for limiting antigen degradation in the stomach before each intragastric challenge.
Isolation of cells from Peyer's patches (PPs). Peyer's patches (PPs) were carefully dissected from the small intestine under a stereo microscope using a fine scissor, pierced once with a fine forcep. Tissues were digested in freshly made digestion buffer (RPMI-1640 containing 100 μg/ml Liberase™ and 50 μg/ml DNase I at 37° C. on a roto-mixer. After 15 min, tissues were very gently mixed using a 1 ml pipette. The supernatant was collected and added to ice-cold MACS buffer (pH 7.4; PBS plus 2% FCS and 2 mM EDTA). Pre-warmed (37° C.) fresh digestion buffer was added to the remaining tissues. After rotation at 37° C. for 15 min, the mixture was vigorously mixed using a 1 ml pipette for 1 min. Supernatants from the two steps were combined and passed through 70 μm filters and stained for FACS (below).
Isolation of cells from the lamina propria (LP). The small intestines were opened longitudinally and washed in ice-cold PBS. For scRNA-seq, roughly 0.5 cm of fragments from each of the distal, middle and proximal regions without visible PPs were collected. Epithelial cells were dissociated by tissue rotation in pre-warmed (37° C.) PBS containing 10 mM EDTA at 37° C. for 15 min, followed by additional incubation on ice for 15 min. Tissues were then shaken vigorously. […]

B1: OVA (protein, UniProt P01012 2-386, looked up)
Ovalbumin: GSIGAASMEFCFDVFKELKVHHANENIFYCPIAIMSALAMVYLGAKDSTRTQINKVVRFDKLPGFGDSIEAQCGTSVNVHSSLRDILNQITKPNDVYSFSLASRLYAEERYPILPEYLQCVKELYRGGLEPINFQTAADQARELINSWVESQTNGIIRNVLQPSSVDSQTAMVLVNAIVFKGLWEKAFKDEDTQAMPFRVTEQESKPVQMMYQIGLFRVASMASEKMKILELPFASGTMSMLVLLPDEVSGLEQLESIINFEKLTEWTSSNVMEERKIKVYLPRMKMEEKYNLTSVLMAMGITDVFSSSANLSGISSAESLKISQAVHAAHAEINEAGREVVGSAEAGVDAASVSEEFRADHPFLFCIKHIATNAVLFFGRCVSP
percentage of expressing cells in OVA-treated group (gene Ero1l): 0.399
LN (average fold change) (gene Ero1l): 0.949
percentage of expressing cells in OVA-treated group (gene Fgl2): 0.61
LN (average fold change) (gene Fgl2): 0.609
percentage of expressing cells in OVA-treated group (gene Fth1): 0.963
LN (average fold change) (gene Fth1): −0.236
percentage of expressing cells in OVA-treated group (gene Fxyd5): 0.564
LN (average fold change) (gene Fxyd5): 0.407
percentage of expressing cells in OVA-treated group (gene Galnt12): 0.086
LN (average fold change) (gene Galnt12): −0.960
percentage of expressing cells in OVA-treated group (gene Gapdh): 0.561
LN (average fold change) (gene Gapdh): 0.420
percentage of expressing cells in OVA-treated group (gene Gimap5): 0.338
LN (average fold change) (gene Gimap5): 0.779
percentage of expressing cells in OVA-treated group (gene Glul): 0.184
LN (average fold change) (gene Glul): −1.009
percentage of expressing cells in OVA-treated group (gene Gmfg): 0.31
LN (average fold change) (gene Gmfg): 0.821
percentage of expressing cells in OVA-treated group (gene Gpr132): 0.399
LN (average fold change) (gene Gpr132): −0.573
percentage of expressing cells in OVA-treated group (gene Gpx4): 0.818
LN (average fold change) (gene Gpx4): −0.345
percentage of expressing cells in OVA-treated group (gene H2-Q4): 0.246
LN (average fold change) (gene H2-Q4): −0.675
percentage of expressing cells in OVA-treated group (gene H2afj): 0.433
LN (average fold change) (gene H2afj): 0.452
percentage of expressing cells in OVA-treated group (gene H3f3b): 0.982
LN (average fold change) (gene H3f3b): 0.286
percentage of expressing cells in OVA-treated group (gene Hccs): 0.243
LN (average fold change) (gene Hccs): 1.079
percentage of expressing cells in OVA-treated group (gene Hmgb1): 0.552
LN (average fold change) (gene Hmgb1): −0.400
percentage of expressing cells in OVA-treated group (gene Igha): 0.951
LN (average fold change) (gene Igha): 0.407
percentage of expressing cells in OVA-treated group (gene Igkc): 0.985
LN (average fold change) (gene Igkc): 0.474
percentage of expressing cells in OVA-treated group (gene Iglc1): 0.184
LN (average fold change) (gene Iglc1): −0.692
percentage of expressing cells in OVA-treated group (gene Irf1): 0.069
LN (average fold change) (gene Irf1): −1.336
percentage of expressing cells in OVA-treated group (gene Itk): 0.515
LN (average fold change) (gene Itk): 0.495
percentage of expressing cells in OVA-treated group (gene Jarid2): 0.156
LN (average fold change) (gene Jarid2): 1.269
percentage of expressing cells in OVA-treated group (gene Kdm6b): 0.65
LN (average fold change) (gene Kdm6b): 0.555
percentage of expressing cells in OVA-treated group (gene Kif23): 0.102
LN (average fold change) (gene Kif23): −1.129
percentage of expressing cells in OVA-treated group (gene Klf4): 0.336
LN (average fold change) (gene Klf4): −0.566
percentage of expressing cells in OVA-treated group (gene Lmna): 0.045
LN (average fold change) (gene Lmna): −1.627
percentage of expressing cells in OVA-treated group (gene Ly6a): 0.055
LN (average fold change) (gene Ly6a): −1.208
percentage of expressing cells in OVA-treated group (gene Maff): 0.399
LN (average fold change) (gene Maff): −0.518
percentage of expressing cells in OVA-treated group (gene Mat2a): 0.288
LN (average fold change) (gene Mat2a): −0.572
percentage of expressing cells in OVA-treated group (gene Naca): 0.839
LN (average fold change) (gene Naca): 0.299
percentage of expressing cells in OVA-treated group (gene Ndfip1): 0.247
LN (average fold change) (gene Ndfip1): 0.765
percentage of expressing cells in OVA-treated group (gene Neurl3): 0.328
LN (average fold change) (gene Neurl3): −0.470
percentage of expressing cells in OVA-treated group (gene Nfkb1): 0.81
LN (average fold change) (gene Nfkb1): 0.501
percentage of expressing cells in OVA-treated group (gene Nr4a2): 0.383
LN (average fold change) (gene Nr4a2): 0.702
percentage of expressing cells in OVA-treated group (gene Nrgn): 0.284
LN (average fold change) (gene Nrgn): 1.042
percentage of expressing cells in OVA-treated group (gene Nxpe3): 0.202
LN (average fold change) (gene Nxpe3): 0.974
percentage of expressing cells in OVA-treated group (gene Pfn1): 0.974
LN (average fold change) (gene Pfn1): 0.233
percentage of expressing cells in OVA-treated group (gene Pgm2l1): 0.065
LN (average fold change) (gene Pgm2l1): −0.966
percentage of expressing cells in OVA-treated group (gene Pnrc1): 0.583
LN (average fold change) (gene Pnrc1): −0.457
percentage of expressing cells in OVA-treated group (gene Pole4): 0.604
LN (average fold change) (gene Pole4): 0.415
percentage of expressing cells in OVA-treated group (gene Polr2e): 0.091
LN (average fold change) (gene Polr2e): −1.019
percentage of expressing cells in OVA-treated group (gene Prdx6): 0.507
LN (average fold change) (gene Prdx6): 0.908
percentage of expressing cells in OVA-treated group (gene Psap): 0.299
LN (average fold change) (gene Psap): −0.562
percentage of expressing cells in OVA-treated group (gene Psmb8): 0.49
LN (average fold change) (gene Psmb8): −0.441
percentage of expressing cells in OVA-treated group (gene Psmb10): 0.219
LN (average fold change) (gene Psmb10): −0.598
percentage of expressing cells in OVA-treated group (gene Ptp4a1): 0.349
LN (average fold change) (gene Ptp4a1): −0.514
percentage of expressing cells in OVA-treated group (gene Ramp3): 0.561
LN (average fold change) (gene Ramp3): 0.516
percentage of expressing cells in OVA-treated group (gene Rheb): 0.536
LN (average fold change) (gene Rheb): 0.631
percentage of expressing cells in OVA-treated group (gene Rnf19b): 0.279
LN (average fold change) (gene Rnf19b): 0.971
percentage of expressing cells in OVA-treated group (gene Rsrp1): 0.24
LN (average fold change) (gene Rsrp1): −0.708
percentage of expressing cells in OVA-treated group (gene Saraf): 0.304
LN (average fold change) (gene Saraf): −0.533
percentage of expressing cells in OVA-treated group (gene Scp2): 0.382
LN (average fold change) (gene Scp2): −0.568
percentage of expressing cells in OVA-treated group (gene Sepp1): 0.254
LN (average fold change) (gene Sepp1): −0.824
percentage of expressing cells in OVA-treated group (gene Serp1): 0.554
LN (average fold change) (gene Serp1): −0.529
percentage of expressing cells in OVA-treated group (gene Srsf7): 0.251
LN (average fold change) (gene Srsf7): −0.443
percentage of expressing cells in OVA-treated group (gene Tgfb1): 0.457
LN (average fold change) (gene Tgfb1): 0.625
percentage of expressing cells in OVA-treated group (gene Tgoln1): 0.215
LN (average fold change) (gene Tgoln1): −0.572
percentage of expressing cells in OVA-treated group (gene Tiparp): 0.18
LN (average fold change) (gene Tiparp): −0.904
percentage of expressing cells in OVA-treated group (gene Tmem64): 0.41
LN (average fold change) (gene Tmem64): 0.605
percentage of expressing cells in OVA-treated group (gene Tmsb4x): 1
LN (average fold change) (gene Tmsb4x): 0.195
percentage of expressing cells in OVA-treated group (gene Tmsb10): 0.942
LN (average fold change) (gene Tmsb10): −0.240
percentage of expressing cells in OVA-treated group (gene Tnfaip3): 0.534
LN (average fold change) (gene Tnfaip3): −0.487
percentage of expressing cells in OVA-treated group (gene Tnfaip8): 0.518
LN (average fold change) (gene Tnfaip8): 0.740
percentage of expressing cells in OVA-treated group (gene Tpm4): 0.394
LN (average fold change) (gene Tpm4): 0.964
percentage of expressing cells in OVA-treated group (gene Tspan13): 0.699
LN (average fold change) (gene Tspan13): −0.366
percentage of expressing cells in OVA-treated group (gene Tspan32): 0.073
LN (average fold change) (gene Tspan32): −0.997
percentage of expressing cells in OVA-treated group (gene Ubc): 0.303
LN (average fold change) (gene Ubc): −0.542
percentage of expressing cells in OVA-treated group (gene Ucp2): 0.612
LN (average fold change) (gene Ucp2): 0.519
percentage of expressing cells in OVA-treated group (gene Uhrf2): 0.296
LN (average fold change) (gene Uhrf2): −0.506
percentage of expressing cells in OVA-treated group (gene Uqcrh): 0.765
LN (average fold change) (gene Uqcrh): 0.450
percentage of expressing cells in OVA-treated group (gene Usmg5): 0.509
LN (average fold change) (gene Usmg5): −0.414
percentage of expressing cells in OVA-treated group (gene Vmp1): 0.239
LN (average fold change) (gene Vmp1): 1.019
percentage of expressing cells in OVA-treated group (gene Zc3h12a): 0.157
LN (average fold change) (gene Zc3h12a): −0.866
percentage of expressing cells in OVA-treated group (gene Zfp36l2): 0.49
LN (average fold change) (gene Zfp36l2): 0.453
percentage of expressing cells in OVA-treated group (gene Zrsr1): 0.242
LN (average fold change) (gene Zrsr1): −0.652
